# In publication PMC3228729, “Localization of ASV Integrase-DNA Contacts by Site-Directed Crosslinking and their Structural Analysis”:
# Target: T1, ASV integrase WT (avian sarcoma virus, UniProt P03354 1281-1567)
# T1 sequence: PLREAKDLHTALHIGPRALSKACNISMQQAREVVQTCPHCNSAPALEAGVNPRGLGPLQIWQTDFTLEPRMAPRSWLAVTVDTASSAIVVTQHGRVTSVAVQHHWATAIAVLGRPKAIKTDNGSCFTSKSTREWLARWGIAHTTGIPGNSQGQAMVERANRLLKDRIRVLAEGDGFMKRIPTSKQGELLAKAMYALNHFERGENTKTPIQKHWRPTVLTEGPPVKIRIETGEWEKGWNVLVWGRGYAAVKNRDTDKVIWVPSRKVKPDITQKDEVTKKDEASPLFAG
# Assay: photocrosslinking; DNA-borne diazirine; among highest efficiency; Photocrosslinking: 40 mM HEPES pH 6.5, 150 mM NaCl, 5% glycerol, 0 C, 10 uM IN, 0.05 uM DNA; disulfide: Buffer 1 adjusted to 250-300 mM NaCl, pH 7.5, on ice, +/-10 mM MgCl2
# Settings: protein: recombinant; label: 32P; blunt
row,Binder,binding result
1,"NH2-4.12 linear (dsDNA, 5-aminouridine at position 12 of strand 4 (paper numbering), carrying aryl diazirine) DNA 1: GAGTATTGCATAAGACTACATT DNA 2: AATGTAGTCTTATGCAATACTC",binds
2,"NH2-3.11 linear (dsDNA, 5-aminouridine replacing T at position 11 of strand 3 (paper numbering), carrying aryl diazirine) DNA 1: AATGTAGTCTTATGCAATACTC DNA 2: GAGTATTGCATAAGACTACATT",binds
